The target of assay [1] is T1, cynomolgus monkey full-length Tie2 on HEK293 cells (cynomolgus monkey, UniProt G7PS68 23-1124).
T1 construct: whole, on cells; also called HEK293/Cyno Tie2; HEK/cyno Tie2
Kind of assay: flow cytometry on HEK/cyno Tie2 cells; Apparent Kd (EC50 binding). From the text:
(§1) Briefly, expression plasmids containing the full-length Tie2 coding sequence for each species were used to transfect primary human endothelial cells (HUVECs) as well as human embryonic kidney (HEK293) cells. A stable cell population was selected by treating transfectants with puromycin antibiotic over the course of 2 weeks and single cell clones were generated using fluorescence activated cell sorting. Upon confirmation of cell surface expression of these Tie2 variants, cell lines were used to determine apparent Kd (EC50) values of anti-Tie2 antibodies on the various Tie2 proteins. […] Cells were labeled with decreasing concentrations of anti-Tie2 antibodies #1, #2, and #3 (10, 5, 2.5, 1, […], 0.63, 0.31, and 0.16 ug/mL) or non-specific hIgG1 antibody (10 ug/mL), followed by labeling with a rabbit anti-human IgG antibody conjugated to an Alexa Fluor 488 fluorophore (20 ug/ml). EC50 values were generated using ForeCyt™ software.

Assay [2] has as its target T2, human full-length Tie2 on cells (human, UniProt Q02763 23-1124). Kind of assay: cell-based or functional assay.
In assay [3] the target is T3, rat full-length Tie2 on HEK cells (rat, UniProt A0ABK0L6J5 19-1116).
T3 construct: whole, on cells; also called HEK/ratTie2
The assay can be described thus: flow cytometry on HEK/ratTie2 cells; Apparent Kd (EC50 binding).
Text: as §1

The target of assay [4] is T4, murine full-length Tie2 on HEK293 cells (mouse, UniProt Q02858 23-1122).
T4 construct: whole, on cells; also called HEK293/Murine Tie2; HEK/mTie2
The assay can be described thus: flow cytometry on HEK293/Murine Tie2 cells, mAb at 10 ug/mL.
Text: as §1

Assay [5] addresses T2, human full-length Tie2 on cells. Kind of assay: flow cytometry on HUVEC; Apparent Kd (EC50 binding).
Text: as §1

For assay [6] the target is unchanged. Kind of assay: flow cytometry on HEK293/Human Tie2 cells, mAb at 10 ug/mL. On the set-up: unit not given here.
Text: as §1
Target sequence in this assay (Q02763 23-1124 limits assumed): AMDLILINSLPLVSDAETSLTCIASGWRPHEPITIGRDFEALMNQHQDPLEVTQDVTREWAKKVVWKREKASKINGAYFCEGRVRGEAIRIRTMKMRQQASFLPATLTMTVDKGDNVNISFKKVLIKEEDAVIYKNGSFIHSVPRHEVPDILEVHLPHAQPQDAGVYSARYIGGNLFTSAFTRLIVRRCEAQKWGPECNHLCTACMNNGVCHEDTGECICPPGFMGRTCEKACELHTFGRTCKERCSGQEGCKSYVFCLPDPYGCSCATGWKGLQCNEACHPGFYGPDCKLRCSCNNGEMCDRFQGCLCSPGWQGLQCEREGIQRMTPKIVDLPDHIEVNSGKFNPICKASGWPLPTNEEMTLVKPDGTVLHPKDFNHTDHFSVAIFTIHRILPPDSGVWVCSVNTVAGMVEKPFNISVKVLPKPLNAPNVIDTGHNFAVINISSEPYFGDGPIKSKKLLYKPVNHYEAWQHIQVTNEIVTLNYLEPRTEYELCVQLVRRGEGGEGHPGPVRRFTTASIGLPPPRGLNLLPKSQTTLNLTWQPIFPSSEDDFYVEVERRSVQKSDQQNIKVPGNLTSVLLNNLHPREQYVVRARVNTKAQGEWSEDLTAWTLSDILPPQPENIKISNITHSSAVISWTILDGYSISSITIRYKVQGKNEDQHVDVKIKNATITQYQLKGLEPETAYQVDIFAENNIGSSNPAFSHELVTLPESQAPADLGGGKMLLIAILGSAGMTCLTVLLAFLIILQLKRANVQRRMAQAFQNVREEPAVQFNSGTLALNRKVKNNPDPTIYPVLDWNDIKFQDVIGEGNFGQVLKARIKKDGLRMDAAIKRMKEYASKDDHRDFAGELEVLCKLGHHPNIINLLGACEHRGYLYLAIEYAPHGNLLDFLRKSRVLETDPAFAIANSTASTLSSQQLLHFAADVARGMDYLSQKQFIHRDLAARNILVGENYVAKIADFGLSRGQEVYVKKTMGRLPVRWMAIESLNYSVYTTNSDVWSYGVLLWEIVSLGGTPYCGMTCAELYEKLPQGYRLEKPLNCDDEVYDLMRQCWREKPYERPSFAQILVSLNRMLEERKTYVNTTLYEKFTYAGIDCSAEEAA

Assay [7] has the same target. Kind of assay: flow cytometry on HEK/huTie2 cells; Apparent Kd (EC50 binding).
Text: as §1

For assay [8], the target named is T5, rabbit full-length Tie2 on HEK cells (rabbit).
T5 chain: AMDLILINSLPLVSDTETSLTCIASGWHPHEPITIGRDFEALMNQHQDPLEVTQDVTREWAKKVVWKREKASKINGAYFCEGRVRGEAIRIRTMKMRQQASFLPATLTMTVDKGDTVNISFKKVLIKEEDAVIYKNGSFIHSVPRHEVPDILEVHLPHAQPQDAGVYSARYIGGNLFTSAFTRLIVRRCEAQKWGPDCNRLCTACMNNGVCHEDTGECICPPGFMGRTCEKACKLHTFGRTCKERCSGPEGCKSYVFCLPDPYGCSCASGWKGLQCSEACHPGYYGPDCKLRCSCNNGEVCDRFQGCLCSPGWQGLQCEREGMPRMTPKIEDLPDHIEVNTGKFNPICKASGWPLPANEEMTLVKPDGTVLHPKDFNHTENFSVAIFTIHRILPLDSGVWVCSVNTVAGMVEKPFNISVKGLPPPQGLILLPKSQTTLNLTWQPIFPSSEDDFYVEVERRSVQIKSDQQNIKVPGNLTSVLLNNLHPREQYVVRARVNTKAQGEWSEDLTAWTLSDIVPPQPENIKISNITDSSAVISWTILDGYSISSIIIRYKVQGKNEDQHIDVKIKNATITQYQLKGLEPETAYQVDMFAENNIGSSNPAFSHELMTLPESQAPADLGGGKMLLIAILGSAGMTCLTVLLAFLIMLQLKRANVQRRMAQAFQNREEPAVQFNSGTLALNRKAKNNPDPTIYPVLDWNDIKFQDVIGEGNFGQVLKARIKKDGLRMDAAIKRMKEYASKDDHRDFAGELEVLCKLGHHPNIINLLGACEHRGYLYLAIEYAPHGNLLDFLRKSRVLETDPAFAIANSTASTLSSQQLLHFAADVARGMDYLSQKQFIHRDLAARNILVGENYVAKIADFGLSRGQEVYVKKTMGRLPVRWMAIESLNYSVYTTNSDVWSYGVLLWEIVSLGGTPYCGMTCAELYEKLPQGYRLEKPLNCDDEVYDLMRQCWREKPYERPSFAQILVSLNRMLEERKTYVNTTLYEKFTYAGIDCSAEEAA
Kind of assay: flow cytometry on HEK/RbTie2 cells; Apparent Kd (EC50 binding).
Text: as §1

In assay [9] the target is T1, cynomolgus monkey full-length Tie2 on …. Kind of assay: flow cytometry on HEK293/Cyno Tie2 cells, mAb at 10 ug/mL.
Text: as §1

The target in assay [10] is T6, Rat Tie2 ECD (rat, UniProt A0ABK0L6J5 19-740).
T6 construct: extracellular domain
Kind of assay: SPR (BIACORE), Tie2 ECD immobilized on CM5, Fab as analyte, 25 C. Here is the method:
(§2) BIACORE™ (BIAcore, Inc., Piscataway, N.J.) was performed at 25° C. with immobilized human, rat or mouse Tie2 ECD antigens on carboxymethylated dextran biosensor chips (CM5) chips at about 10 response units (RU). CM5 chips were activated with N-ethyl-N′-(3-dimethylaminopropyl)-carbodiimide hydrochloride (EDC) and N-hydroxysuccinimide (NFIS) according to the supplier's instructions. All Tie2 ECD antigens were diluted with 10 mM sodium acetate, pH 4.8, to […] before injection at a flow rate of 5 μl/minute to achieve approximately 10 RU of coupled protein. Following the injection of each Tie2 ECD, 1 M ethanolamine was injected to block unreacted groups. For kinetics measurements, two-fold serial dilutions of the antibody clone #3 Fab (0.78 nM to 500 nM) were injected in PBS with 0.05% polysorbate 20 (TWEEN™-20) surfactant (PBST) at 25° C. at a flow rate of approximately 25 μl/min. Association rates (kon) and dissociation rates (koff) were calculated using a simple one-to-one Langmuir binding model (BIACORE™ Evaluation Software version 3.2) by simultaneously fitting the association and dissociation sensorgrams. The equilibrium dissociation constant (KD) was calculated as the ratio koff/kon. See, for example, Chen et al., J. Mol. Biol. 293:865-881 (1999).

Assay [11] deals with T7, recombinant mouse Tie2 ECD protein (mouse, UniProt Q02858 23-746).
T7 construct: extracellular domain
Described as above. The method, then: as §2

For assay [12], the target named is T8, recombinant human Tie2 ECD protein (human, UniProt Q02763 23-748).
T8 construct: also called human Tie2 extracellular domain
The description is as above. The method, then: as §2

Residue numbers refer to the chain shown, from its start.

T4 sequence (Q02858 23-1122): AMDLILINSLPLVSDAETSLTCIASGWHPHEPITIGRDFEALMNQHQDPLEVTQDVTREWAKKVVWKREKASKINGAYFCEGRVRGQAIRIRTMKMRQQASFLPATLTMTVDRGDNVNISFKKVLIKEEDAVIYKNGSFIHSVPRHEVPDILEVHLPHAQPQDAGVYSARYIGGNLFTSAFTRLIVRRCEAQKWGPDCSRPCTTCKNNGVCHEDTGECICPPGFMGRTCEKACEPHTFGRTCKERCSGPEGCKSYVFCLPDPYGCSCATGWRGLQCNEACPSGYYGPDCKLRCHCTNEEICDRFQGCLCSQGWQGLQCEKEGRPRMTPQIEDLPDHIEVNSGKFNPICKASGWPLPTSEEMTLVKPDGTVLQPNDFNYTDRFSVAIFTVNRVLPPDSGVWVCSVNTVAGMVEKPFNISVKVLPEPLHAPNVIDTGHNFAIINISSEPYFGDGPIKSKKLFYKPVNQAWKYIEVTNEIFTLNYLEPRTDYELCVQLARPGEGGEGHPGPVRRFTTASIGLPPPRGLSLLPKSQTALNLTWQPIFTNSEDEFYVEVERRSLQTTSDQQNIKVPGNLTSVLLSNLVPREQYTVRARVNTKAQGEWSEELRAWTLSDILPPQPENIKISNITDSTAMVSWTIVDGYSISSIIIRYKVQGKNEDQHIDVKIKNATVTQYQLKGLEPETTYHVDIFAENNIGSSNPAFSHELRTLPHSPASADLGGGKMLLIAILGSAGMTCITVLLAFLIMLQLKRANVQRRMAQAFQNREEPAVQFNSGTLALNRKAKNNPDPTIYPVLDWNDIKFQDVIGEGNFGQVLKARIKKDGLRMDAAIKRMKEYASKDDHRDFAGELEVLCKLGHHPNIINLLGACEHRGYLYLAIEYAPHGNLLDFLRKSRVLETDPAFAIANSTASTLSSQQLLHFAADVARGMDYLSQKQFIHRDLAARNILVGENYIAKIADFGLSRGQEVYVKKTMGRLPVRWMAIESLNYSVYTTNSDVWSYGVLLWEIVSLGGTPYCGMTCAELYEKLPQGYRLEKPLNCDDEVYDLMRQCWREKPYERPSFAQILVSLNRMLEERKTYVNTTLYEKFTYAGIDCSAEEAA
T8 sequence (Q02763 23-748 limits assumed): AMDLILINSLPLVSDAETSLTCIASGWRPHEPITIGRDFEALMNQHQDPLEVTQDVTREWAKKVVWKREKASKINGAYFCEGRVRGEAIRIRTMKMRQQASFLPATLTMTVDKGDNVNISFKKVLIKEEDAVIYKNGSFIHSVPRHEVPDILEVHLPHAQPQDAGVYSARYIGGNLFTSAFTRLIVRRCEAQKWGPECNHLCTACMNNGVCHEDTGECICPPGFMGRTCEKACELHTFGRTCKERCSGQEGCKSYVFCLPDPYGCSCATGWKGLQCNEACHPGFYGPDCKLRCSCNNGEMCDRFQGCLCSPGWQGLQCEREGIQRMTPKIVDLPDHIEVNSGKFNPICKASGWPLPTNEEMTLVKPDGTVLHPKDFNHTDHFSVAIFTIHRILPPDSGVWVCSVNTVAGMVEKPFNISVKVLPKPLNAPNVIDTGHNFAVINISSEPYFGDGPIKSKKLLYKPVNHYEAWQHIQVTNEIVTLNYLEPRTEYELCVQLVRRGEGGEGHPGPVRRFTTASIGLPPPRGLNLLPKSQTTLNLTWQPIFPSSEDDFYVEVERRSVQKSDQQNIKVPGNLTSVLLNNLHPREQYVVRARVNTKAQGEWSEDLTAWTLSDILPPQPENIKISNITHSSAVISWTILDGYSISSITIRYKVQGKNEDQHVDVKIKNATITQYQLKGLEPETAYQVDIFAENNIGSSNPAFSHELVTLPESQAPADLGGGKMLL
T7 sequence (Q02858 23-746): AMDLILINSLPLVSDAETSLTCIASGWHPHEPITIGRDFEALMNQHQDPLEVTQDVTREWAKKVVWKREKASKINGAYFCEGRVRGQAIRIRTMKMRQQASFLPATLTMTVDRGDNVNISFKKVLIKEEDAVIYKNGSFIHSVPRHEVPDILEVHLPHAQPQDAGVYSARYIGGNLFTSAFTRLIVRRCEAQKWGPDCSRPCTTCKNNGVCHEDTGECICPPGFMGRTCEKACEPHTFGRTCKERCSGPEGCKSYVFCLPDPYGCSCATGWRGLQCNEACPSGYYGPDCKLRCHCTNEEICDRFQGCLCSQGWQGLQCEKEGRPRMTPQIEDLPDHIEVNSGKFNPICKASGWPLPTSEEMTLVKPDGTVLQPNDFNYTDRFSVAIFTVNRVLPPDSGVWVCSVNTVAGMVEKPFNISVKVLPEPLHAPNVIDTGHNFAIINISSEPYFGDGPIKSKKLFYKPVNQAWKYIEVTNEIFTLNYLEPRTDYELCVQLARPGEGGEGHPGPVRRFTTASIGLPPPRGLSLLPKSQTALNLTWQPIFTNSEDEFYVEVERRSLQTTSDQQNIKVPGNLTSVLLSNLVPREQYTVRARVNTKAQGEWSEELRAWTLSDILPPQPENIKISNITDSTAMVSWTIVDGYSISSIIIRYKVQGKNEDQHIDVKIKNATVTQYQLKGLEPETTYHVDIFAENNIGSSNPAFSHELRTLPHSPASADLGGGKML

B1: human anti-Tie2 antibody #2 (antibody, V domains shown)
VH: DVQLVESGGGVVRPGESLRLSCAASGFSFINFAMTWVRQAPGEGPEWVSLISDDGRGNRPYYADSVKGRFTISRDNSKNILYLQMNSLRVEDTATYYCAKVSWDVFFDYWGLGTVVTVSS
VL: EIVLTQSPGTVSLSPGERVTLSCRASQPIDVYLAWYQQKPGQAPRLLIYGANRRAIDIPDRFSGSGSGTEFTLTINSLQNEDFAVYFCQQYMTWPPVTFGGGTKVEIK
notes: also called Ab #2; Antibody Clone # 2
With B1, the EC50 in assay [1] came out at 7.7 nM; in [3], 1.4 nM; in [5], 1 nM; in assay [7], 2.7 nM; in assay [8] it was 4.1 nM. Moreover, the “EC50 of pAkt relative to total Akt in HUVEC cells (western blot, quantitative fluorescence imaging)” value (“EC50 of pAkt relative to total Akt” for short) in assay [2] was determined as 0.48 nM. The “Cross-Reactivity Screen (mAb at 10 ug/mL)” value (“Cross-Reactivity Screen” for short) in [4] amounted to 41.7; in assay [6] it was 64.9; in [9] it was 53.2.

B2: anti-Tie2 antibody #31 (antibody, V domains shown)
VH: B1 VH with L18P, V115L
VL: B1 VL
notes: also called Ab #31; Antibody Clone # 31
Regarding B2, the “Cross-Reactivity Screen” value in assay [4] is 28.5; in assay [6], 65.3; in assay [9], 47.5.

B3: anti-Tie2 antibody #5 (antibody, V domains shown)
VH: DVQLVESGGGVVRPGESLRLSCTASGFSFDVYAMTWVRQAPGKGLEWLTLISGTGRMTYYADSVKGRFTVSRDNSKKTLYLQMNSLRAEDTAVYYCAKDPFGHGFFDYWGLGTLVTVSS
VL: EIVLTQSPGTLSLSPGERATLSCRASQTVGSKLAWYQQKPGQAPRLLIYDASTRATGIPDRFSGSGSGTDFTLTISSLQSEDFAVYYCQQYNNWPPLTFGGGTKVEIK
notes: also called Ab #5; Antibody Clone # 5
Consider B3, for which the “Cross-Reactivity Screen” value in assay [4] worked out at 0.2; in assay [6] it was 60.2; in assay [9], 73.1.

B4: anti-Tie2 antibody #6 (antibody, V domains shown)
VH: B3 VH
VL: EIVLTQSPGTLTLSPGETATLTCRASQSVNRNLAWYQEKPDQAPRLLIYDARTRATGVPDRFSGSGSGTDFTLTINSLQSEDFAVYVCQQYYDWPPFTFGGGTKVEIK
notes: also called Ab #6; Antibody Clone # 6
As to B4, the “Cross-Reactivity Screen” value came out at 0.3 in [4], 63.7 in assay [6] and 78.8 in [9].

B5: antibody clone #3 Fab (Fab, V domains shown)
VH: DVQLVESGGGVVRPGESLRLSCTASGFTFDSYGMSWVRQAPGKGLEWVSSINVGDNTYYADSVRGRFIISRDSSRNTLYLQMNSLTAEDTAVYYCANWNSFFDYWGLGTLVTVSS
VL: B3 VL with R18I, T28N, G30R, K32D, T53N, N92S
In assay [10], B5 displayed a Kd of 2.56 nM and a kon of 254000 M⁻¹ s⁻¹. In assay [11], the Kd came out at 3.21 nM, the koff is 0.000876 s⁻¹ and the kon was found to be 273000 M⁻¹ s⁻¹. Also, in assay [12], the Kd was 2.34 nM, the koff stood at 0.000377 s⁻¹ and the kon stood at 161000 M⁻¹ s⁻¹.

B6: human anti-Tie2 antibody #1 (antibody, V domains shown)
VH: DVQLVESGGGVVRPGESLRLSCAASGFTFSSYAMSWVRQAPGEGLEWVARISDYTIYYADSVKGRFTISRDNSKNTLYLQMNSLRAEDTAVYYCAKSGPKSGKYWNNFFDSWGLGTLVTVSS
VL: EIVLTQSPGTLSVSPGERATLTCRASQSVKTDLAWYQQKPGQAPRLLIYGATTRATGIPARFSGSGSGTEFTLTITNLQSEDFAVYYCQQYYVWPPLTFGGGTKVEIK
notes: also called Ab #1; Antibody Clone # 1
As for B6, the EC50 in [1] stood at 7.8 nM; in assay [5], 2 nM; in assay [7], 8 nM. The “EC50 of pAkt relative to total Akt” value in [2] came to 0.91 nM. Besides, the “Cross-Reactivity Screen” value in assay [4] was found to be 0.4; in assay [6], 60.7; in [9] it was 74.1.

B7: Angiopoietin-1 (ligand, UniProt Q15389 20-498, looked up)
chain: SNQRRSPENSGRRYNRIQHGQCAYTFILPEHDGNCRESTTDQYNTNALQRDAPHVEPDFSSQKLQHLEHVMENYTQWLQKLENYIVENMKSEMAQIQQNAVQNHTATMLEIGTSLLSQTAEQTRKLTDVETQVLNQTSRLEIQLLENSLSTYKLEKQLLQQTNEILKIHEKNSLLEHKILEMEGKHKEELDTLKEEKENLQGLVTRQTYIIQELEKQLNRATTNNSVLQKQQLELMDTVHNLVNLCTKEGVLLKGGKREEEKPFRDCADVYQAGFNKSGIYTIYINNMPEPKKVFCNMDVNGGGWTVIQHREDGSLDFQRGWKEYKMGFGNPSGEYWLGNEFIFAITSQRQYMLRIELMDWEGNRAYSQYDRFHIGNEKQNYRLYLKGHTGTAGKQSSLILHGADFSTKDADNDNCMCKCALMLTGGWWFDACGPSNLNGMFYTAGQNHGKLNGIKWHYFKGPSYSLRSTTMMIRPLDF
On to B7, for which, in [2], the “EC50 of pAkt relative to total Akt” value is 0.54 nM.

The record behind these values is patent US20210155697A1 (UNITY BIOTECHNOLOGY, published 2021).
